How the values were obtained:
Assay in all cases: co-IP
[1] = biological target: Hmg2-GFP (S. cerevisiae) (UniProt P12684)
[2] = biological target: Pdr5*-Myc (S. cerevisiae) (UniProt P33302)
[3] = biological target: Ste6*-GFP (S. cerevisiae) (UniProt P12866)

Measured: fraction bound compared to wildtype Dfm1

Chain of UniProt P12866 (P12866 whole entry): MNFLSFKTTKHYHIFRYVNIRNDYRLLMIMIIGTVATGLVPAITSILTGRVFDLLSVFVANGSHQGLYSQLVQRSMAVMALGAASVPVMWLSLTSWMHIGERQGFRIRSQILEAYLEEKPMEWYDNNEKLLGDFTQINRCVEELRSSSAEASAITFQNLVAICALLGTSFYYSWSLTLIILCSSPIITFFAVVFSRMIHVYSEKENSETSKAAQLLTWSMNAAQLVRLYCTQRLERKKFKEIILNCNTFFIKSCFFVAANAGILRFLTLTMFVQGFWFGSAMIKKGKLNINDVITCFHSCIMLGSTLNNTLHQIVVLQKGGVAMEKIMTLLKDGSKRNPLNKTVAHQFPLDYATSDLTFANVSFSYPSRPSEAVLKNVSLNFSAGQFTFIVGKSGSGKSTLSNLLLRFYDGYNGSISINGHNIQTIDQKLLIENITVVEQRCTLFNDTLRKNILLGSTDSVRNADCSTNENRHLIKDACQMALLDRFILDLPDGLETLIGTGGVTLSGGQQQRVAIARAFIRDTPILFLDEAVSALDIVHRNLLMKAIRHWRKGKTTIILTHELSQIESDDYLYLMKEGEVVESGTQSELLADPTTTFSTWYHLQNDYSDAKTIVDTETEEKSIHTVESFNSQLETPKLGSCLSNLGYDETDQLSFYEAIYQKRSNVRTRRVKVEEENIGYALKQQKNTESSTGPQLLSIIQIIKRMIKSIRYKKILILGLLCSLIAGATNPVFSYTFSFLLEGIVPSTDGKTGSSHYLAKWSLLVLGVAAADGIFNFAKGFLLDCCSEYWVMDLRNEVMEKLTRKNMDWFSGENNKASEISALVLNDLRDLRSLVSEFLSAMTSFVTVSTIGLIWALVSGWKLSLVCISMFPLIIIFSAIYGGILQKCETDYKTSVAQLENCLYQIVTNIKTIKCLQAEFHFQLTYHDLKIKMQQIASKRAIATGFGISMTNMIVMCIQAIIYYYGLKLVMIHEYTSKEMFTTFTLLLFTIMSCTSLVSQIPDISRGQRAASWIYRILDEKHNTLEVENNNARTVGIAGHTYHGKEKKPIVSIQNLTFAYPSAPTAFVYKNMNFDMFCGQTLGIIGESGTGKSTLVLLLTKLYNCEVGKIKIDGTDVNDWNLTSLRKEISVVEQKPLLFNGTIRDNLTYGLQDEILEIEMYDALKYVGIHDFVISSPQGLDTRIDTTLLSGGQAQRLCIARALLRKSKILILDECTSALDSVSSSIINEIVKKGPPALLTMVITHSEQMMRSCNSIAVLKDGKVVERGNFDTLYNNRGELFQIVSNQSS
Chain of UniProt P12684 (P12684 whole entry): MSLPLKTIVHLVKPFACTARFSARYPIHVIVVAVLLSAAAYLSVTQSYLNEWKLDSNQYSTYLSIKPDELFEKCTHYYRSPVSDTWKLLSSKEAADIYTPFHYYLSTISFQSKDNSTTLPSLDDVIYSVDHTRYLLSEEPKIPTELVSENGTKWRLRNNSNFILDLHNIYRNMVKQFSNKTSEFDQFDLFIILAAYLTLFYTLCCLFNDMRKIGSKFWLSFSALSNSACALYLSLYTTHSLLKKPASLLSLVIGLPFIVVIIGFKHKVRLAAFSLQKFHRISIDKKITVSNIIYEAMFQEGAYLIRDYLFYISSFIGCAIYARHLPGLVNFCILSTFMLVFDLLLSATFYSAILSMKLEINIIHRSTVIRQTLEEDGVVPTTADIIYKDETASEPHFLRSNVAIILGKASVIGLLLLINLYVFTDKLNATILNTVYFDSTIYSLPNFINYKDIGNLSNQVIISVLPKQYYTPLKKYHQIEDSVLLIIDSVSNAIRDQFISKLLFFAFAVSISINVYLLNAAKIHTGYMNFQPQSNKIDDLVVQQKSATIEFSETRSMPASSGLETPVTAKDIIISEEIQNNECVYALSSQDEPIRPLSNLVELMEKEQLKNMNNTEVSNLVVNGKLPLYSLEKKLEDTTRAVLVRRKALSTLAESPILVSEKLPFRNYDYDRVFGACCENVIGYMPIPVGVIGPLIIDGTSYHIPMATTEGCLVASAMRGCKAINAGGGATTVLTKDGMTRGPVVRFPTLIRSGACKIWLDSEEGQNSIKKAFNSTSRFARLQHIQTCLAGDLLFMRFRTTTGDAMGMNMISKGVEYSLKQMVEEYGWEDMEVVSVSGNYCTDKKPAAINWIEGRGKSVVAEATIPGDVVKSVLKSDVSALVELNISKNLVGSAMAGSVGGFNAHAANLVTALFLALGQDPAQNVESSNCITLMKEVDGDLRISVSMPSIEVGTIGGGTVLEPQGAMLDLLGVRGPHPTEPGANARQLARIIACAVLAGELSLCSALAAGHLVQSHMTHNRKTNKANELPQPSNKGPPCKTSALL
Chain of UniProt P33302 (P33302 whole entry): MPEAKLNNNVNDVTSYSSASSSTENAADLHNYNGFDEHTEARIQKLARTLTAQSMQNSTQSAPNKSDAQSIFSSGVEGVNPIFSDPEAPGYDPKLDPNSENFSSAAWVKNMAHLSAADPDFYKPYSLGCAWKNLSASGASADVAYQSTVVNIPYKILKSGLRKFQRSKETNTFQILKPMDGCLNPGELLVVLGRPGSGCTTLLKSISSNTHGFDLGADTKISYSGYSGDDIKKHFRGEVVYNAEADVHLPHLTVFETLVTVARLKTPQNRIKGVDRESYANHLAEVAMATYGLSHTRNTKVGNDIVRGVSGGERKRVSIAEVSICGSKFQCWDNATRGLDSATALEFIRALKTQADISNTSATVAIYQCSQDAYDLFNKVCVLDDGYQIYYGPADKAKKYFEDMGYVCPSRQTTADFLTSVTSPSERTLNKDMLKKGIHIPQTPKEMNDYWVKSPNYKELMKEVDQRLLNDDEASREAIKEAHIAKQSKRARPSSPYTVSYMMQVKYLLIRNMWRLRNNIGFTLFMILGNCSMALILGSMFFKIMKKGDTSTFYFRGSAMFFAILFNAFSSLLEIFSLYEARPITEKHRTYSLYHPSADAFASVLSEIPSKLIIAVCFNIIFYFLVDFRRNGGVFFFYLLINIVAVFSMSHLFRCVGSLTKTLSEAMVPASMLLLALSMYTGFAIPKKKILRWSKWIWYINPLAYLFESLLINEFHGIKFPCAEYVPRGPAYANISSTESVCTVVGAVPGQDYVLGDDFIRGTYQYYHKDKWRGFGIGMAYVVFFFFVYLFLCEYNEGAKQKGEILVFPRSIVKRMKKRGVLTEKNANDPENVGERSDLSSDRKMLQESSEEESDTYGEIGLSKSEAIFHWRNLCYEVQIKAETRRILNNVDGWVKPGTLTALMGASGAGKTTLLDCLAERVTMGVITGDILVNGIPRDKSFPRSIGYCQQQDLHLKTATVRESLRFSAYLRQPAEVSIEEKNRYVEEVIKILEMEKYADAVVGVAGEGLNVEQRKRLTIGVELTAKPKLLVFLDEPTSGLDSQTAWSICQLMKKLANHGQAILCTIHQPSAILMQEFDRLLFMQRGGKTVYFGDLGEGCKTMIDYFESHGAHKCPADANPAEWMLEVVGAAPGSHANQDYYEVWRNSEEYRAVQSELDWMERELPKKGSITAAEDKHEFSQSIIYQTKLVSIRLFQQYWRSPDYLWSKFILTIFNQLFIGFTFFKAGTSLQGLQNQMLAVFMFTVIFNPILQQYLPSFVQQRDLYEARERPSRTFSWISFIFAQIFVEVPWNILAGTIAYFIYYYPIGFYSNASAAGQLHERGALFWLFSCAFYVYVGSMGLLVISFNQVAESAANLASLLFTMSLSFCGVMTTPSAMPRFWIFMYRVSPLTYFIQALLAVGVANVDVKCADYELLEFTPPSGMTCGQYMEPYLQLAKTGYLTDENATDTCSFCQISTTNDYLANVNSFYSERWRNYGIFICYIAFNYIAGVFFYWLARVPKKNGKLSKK

Dfm1-5Ashp (from UniProt Q12743 1-341) (natural protein)
< 5%: all assays above
